# Tests used:
# [1] = molecular target: Swedish mutant APP (βAPP 751 sw) expressed from pohCK751 in 293T cells, P05067
# [2] = molecular target: wild-type APP (βAPP 751) expressed from pohCK751 in 293T cells, P05067
# [3] = molecular target: MBP-C125sw fusion protein [MBP: P0AEX9]
# Sequence of Swedish mutant APP (βAPP 751 sw) expressed from pohCK751 in 293T cells, P05067 (P05067 whole entry, looked up, change not shown): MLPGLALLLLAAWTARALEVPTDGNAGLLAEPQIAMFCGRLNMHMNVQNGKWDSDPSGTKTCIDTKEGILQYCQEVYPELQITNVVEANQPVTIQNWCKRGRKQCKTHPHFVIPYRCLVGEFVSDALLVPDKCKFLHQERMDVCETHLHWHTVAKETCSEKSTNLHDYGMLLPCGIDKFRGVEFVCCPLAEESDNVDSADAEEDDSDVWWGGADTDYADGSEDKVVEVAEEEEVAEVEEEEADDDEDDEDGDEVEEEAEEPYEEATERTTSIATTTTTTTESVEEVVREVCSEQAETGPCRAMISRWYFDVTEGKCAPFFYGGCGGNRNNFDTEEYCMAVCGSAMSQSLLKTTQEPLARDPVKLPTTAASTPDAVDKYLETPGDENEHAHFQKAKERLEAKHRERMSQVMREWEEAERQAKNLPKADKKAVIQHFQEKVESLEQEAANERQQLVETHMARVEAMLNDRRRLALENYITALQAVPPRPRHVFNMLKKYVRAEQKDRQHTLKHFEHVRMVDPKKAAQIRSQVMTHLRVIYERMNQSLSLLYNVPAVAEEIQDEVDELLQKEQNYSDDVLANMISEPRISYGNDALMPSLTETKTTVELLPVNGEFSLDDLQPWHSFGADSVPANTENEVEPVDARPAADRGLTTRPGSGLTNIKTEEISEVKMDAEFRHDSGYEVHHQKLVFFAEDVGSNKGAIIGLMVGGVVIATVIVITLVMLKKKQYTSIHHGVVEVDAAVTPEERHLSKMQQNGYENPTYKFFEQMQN
# Sequence of wild-type APP (βAPP 751) expressed from pohCK751 in 293T cells, P05067 (P05067 whole entry, looked up, the tested form may be a part): as the sequence (P05067 whole entry, looked up, change not shown) above
protein,measurement,setting,value
recombinant full-length human β-secretase (1-501) expressed from pCEK clone 27 / pCFβA2 in 293T or Cos A2 cells (protein) ETDEEPEEPGRRGSFVEMVDNLRGKSGQGYYVEMTVGSPPQTLNILVDTGSSNFAVGAAPHPFLHRYYQRQLSSTYRDLRKGVYVPYTQGKWEGELGTDLVSIPHGPNVTVRANIAAITESDKFFINGSNWEGILGLAYAEIARPDDSLEPFFDSLVKQTHVPNLFSLQLCGAGFPLNQSEVLASVGGSMIIGGIDHSLYTGSLWYTPIRREWYYEVIIVRVEINGQDLKMDCKEYNYDKSIVDSGTTNLRLPKKVFEAAVKSIKAASSTEKFPDGFWLGEQLVCWQAGTTPWNIFPVISLYLMGEVTNQSFRITILPQQYLRPVEDVATSQDDCYKFAISQSSTGTVMGAVIMEGFYVVFDRARKRIGFAVSACHVHDEFRTAAVEGPFVTLDMEDCGYNIPQTDESTLMTIAYVMAAICALFMLPLCLMVCQWRCLRCLRQQHDDFADDISLLK,"Aβ(x-40) production, ELISA of conditioned media",[1],approximate 2-fold increase in Aβ(x-40)
same,"Aβ(x-40) production, ELISA of conditioned media",[2],approximately 8-fold increase in Aβ(x-40) production
naturally occurring human β-secretase purified from human brain (protein) ETDEEPEEPGRRGSFVEMVDNLRGKSGQGYYVEMTVGSPPQTLNILVDTGSSNFAVGAAPHPFLHRYYQRQLSSTYRDLRKGVYVPYTQGKWEGELGTDLVSIPHGPNVTVRANIAAITESDKFFINGSNWEGILGLAYAEIARPDDSLEPFFDSLVKQTHVPNLFSLQLCGAGFPLNQSEVLASVGGSMIIGGIDHSLYTGSLWYTPIRREWYYEVIIVRVEINGQDLKMDCKEYNYDKSIVDSGTTNLRLPKKVFEAAVKSIKAASSTEKFPDGFWLGEQLVCWQAGTTPWNIFPVISLYLMGEVTNQSFRITILPQQYLRPVEDVATSQDDCYKFAISQSSTGTVMGAVIMEGFYVVFDRARKRIGFAVSACHVHDEFRTAAVEGPFVTLDMEDCGYNIPQTDESTLMTIAYVMAAICALFMLPLCLMVCQWRCLRCLRQQHDDFADDISLLK,"Specific Activity (MBP-C125 sw assay), Anion Exchange Pool (nM/h/µg prot.)",[3],1.49e+06
"FLp501, full length recombinant β-secretase having a C-terminal flag sequence (protein) ETDEEPEEPGRRGSFVEMVDNLRGKSGQGYYVEMTVGSPPQTLNILVDTGSSNFAVGAAPHPFLHRYYQRQLSSTYRDLRKGVYVPYTQGKWEGELGTDLVSIPHGPNVTVRANIAAITESDKFFINGSNWEGILGLAYAEIARPDDSLEPFFDSLVKQTHVPNLFSLQLCGAGFPLNQSEVLASVGGSMIIGGIDHSLYTGSLWYTPIRREWYYEVIIVRVEINGQDLKMDCKEYNYDKSIVDSGTTNLRLPKKVFEAAVKSIKAASSTEKFPDGFWLGEQLVCWQAGTTPWNIFPVISLYLMGEVTNQSFRITILPQQYLRPVEDVATSQDDCYKFAISQSSTGTVMGAVIMEGFYVVFDRARKRIGFAVSACHVHDEFRTAAVEGPFVTLDMEDCGYNIPQTDESTLMTIAYVMAAICALFMLPLCLMVCQWRCLRCLRQQHDDFADDISLLKYKDDDDK",cleavage of substrate,[3],Both enzymes exhibited activity in cleaving β-secretase substrates such as MBP-C125
"452stop, recombinant β-secretase truncated at position 452 (1-452) (protein) ETDEEPEEPGRRGSFVEMVDNLRGKSGQGYYVEMTVGSPPQTLNILVDTGSSNFAVGAAPHPFLHRYYQRQLSSTYRDLRKGVYVPYTQGKWEGELGTDLVSIPHGPNVTVRANIAAITESDKFFINGSNWEGILGLAYAEIARPDDSLEPFFDSLVKQTHVPNLFSLQLCGAGFPLNQSEVLASVGGSMIIGGIDHSLYTGSLWYTPIRREWYYEVIIVRVEINGQDLKMDCKEYNYDKSIVDSGTTNLRLPKKVFEAAVKSIKAASSTEKFPDGFWLGEQLVCWQAGTTPWNIFPVISLYLMGEVTNQSFRITILPQQYLRPVEDVATSQDDCYKFAISQSSTGTVMGAVIMEGFYVVFDRARKRIGFAVSACHVHDEFRTAAVEGPFVTLDMEDCGYNIPQTDEYKDDDDK",cleavage of substrate,[3],The C-terminal truncated form of the enzyme exhibited activity in leaving the MBP-C125sw substrate as well as the P26-P4′ substrate
